This note sets out measurements from paper PMC6704105.

In this assay the target is PRMT5 (UniProt O14744). The assay can be described thus: co-IP with anti-PRMT5, JDP2 blot. The note with it: reference: wild-type JDP2; sites T116.

For JDP2 (from UniProt Q8WYK2) JDP2 T116A, the “binding against the reference” value was “lost”.
